# Source: IntAct's records for PubMed 21893288
# B1: Translocated intimin receptor Tir (Escherichia coli O157:H7), Q7DB77 (parent)
# chain: MPIGNLGHNPNVNNSIPPAPPLPSQTDGAGGRGQLINSTGPLGSRALFTPVRNSMADSGDNRASDVPGLPVNPMRLAASEITLNDGFEVLHDHGPLDTLNRQIGSSVFRVETQEDGKHIAVGQRNGVETSVVLSDQEYARLQSIDPEGKDKFVFTGGRGGAGHAMVTVASDITEARQRILELLEPKGTGESKGAGESKGVGELRESNSGAENTTETQTSTSTSSLRSDPKLWLALGTVATGLIGLAATGIVQALALTPEPDSPTTTDPDAAASATETATRDQLTKEAFQNPDNQKVNIDELGNAIPSGVLKDDVVANIEEQAKAAGEEAKQQAIENNAQAQKKYDEQQAKRQEELKVSSGAGYGLSGALILGGGIGVAVTAALHRKNQPVEQTTTTTTTTTTTSARTVENKPANNTPAQGNVDTPGSEDTMESRRSSMASTSSTFFDTSSIGTVQNPYADVKTSLHDSQVPTSNSNTSVQNMGNTDSVVYSTIQHPPRDTTDNGARLLGNPSAGIQSTYARLALSGGLRHDMGGLTGGSNSAVNTSNNPPAPGSHRFV
# B2: BAR/IMD domain-containing adapter protein 2 (Homo sapiens), Q9UQB8-4 (parent)
# chain: MSLSRSEEMHRLTENVYKTIMEQFNPSLRNFIAMGKNYEKALAGVTYAAKGYFDALVKMGELASESQGSKELGDVLFQMAEVHRQIQNQLEEMLKSFHNELLTQLEQKVELDSRYLSAALKKYQTEQRSKGDALDKCQAELKKLRKKSQGSKNPQKYSDKELQYIDAISNKQGELENYVSDGYKTALTEERRRFCFLVEKQCAVAKNSAAYHSKGKELLAQKLPLWQQACADPSKIPERAVQLMQQVASNGATLPSALSASKSNLVISDPIPGAKPLPVPPELAPFVGRMSAQESTPIMNGVTGPDGEDYSPWADRKAAQPKSLSPPQSQSKLSDSYSNTLPVRKSVTPKNSYATTENKTLPRSSSMAAGLERNGRMRVKAIFSHAAGDNSTLLSFKEGDLITLLVPEARDGWHYGESEKTKMRGWFPFSYTRVLDSDGSDRLHMSLQQGKSSSTGNLLDKDDLAIPPPDYGAASRAFPAQTASGFKQRPYSVAVPAFSQGLDDYGARSMSSGSGTLVSTV
# Key:
# BAIAP2, Q9UQB8-4 = variants of: B1; details: with BAIAP2, Q9UQB8-4
# tir_eco27 tir, B7UM99 = variants of: B2; details: with tir_eco27 tir
# tir_eco57 tir, Q7DB77 [1] = variants of: B2; details: with tir_eco57 tir
# tir_eco57 tir, Q7DB77 [2] = variants of: B2; details: with tir_eco57 tir; remark: listed apart in the source
variant,measurement,setting,value
Y458F,effect of a mutation on the interaction,"BAIAP2, Q9UQB8-4",disrupting interaction
MSLSRSEEMHRLTENVYKTIMEQFNPSERNFIAMGKNYEKALAGVTYAAKGYFDALVKMGELASESQGSKELGDVLFQMAEVHRQIQNQLEEMLKSFHNELLTQLEQKVELDSRYLSAALKKYQTEQRSKGDALDKCQAELKKLRKKSQGSKNPQKYSDKELQYIDAISNKQGELENYVSDGYKTALTEERRRFCFLVEKQCAVAKNSAAYHSKGKELLAQKLPLWQQACADPSKIPERAVQLMQQVASNGATLPSALSASKSNLVISDPIPGAKPLPVPPELAPFVGRMSAQESTPIMNGVTGPDGEDYSPWADRKAAQPKSLSPPQSQSKLSDSYSNTLPVRKSVTPKNSYATTENKTLPRSSSMAAGLERNGRMRVKAIFSHAAGDNSTLLSFKEGDLITLLVPEARDGWHYGESEKTKMRGWFPFSYTRVLDSDGSDRLHMSLQQGKSSSTGNLLDKDDLAIPPPDYGAASRAFPAQTASGFKQRPYSVAVPAFSQGLDDYGARSMSSGSGTLVSTV [L28E],effect of a mutation on the interaction,"tir_eco27 tir, B7UM99",disrupting interaction
same,effect of a mutation on the interaction,"tir_eco57 tir, Q7DB77 [1]",disrupting interaction
MSLSRSEEMHRLTENVYKTIMEQFNPSLRNFIAMGKNYEKALAGVTYAAKGYFDALVKMGELASESQGSKELGDVLFQMAEVHRQIQNQLEEMLKSFHNELLTQLEQKVELDSRYLSAALKKYQTEQRSKGDALDKCQAELKKLRKKSQGSKNPQKYSDKELQYIDAISNKQGELENYVSDGYKTALTEERRSFCFLVEKQCAVAKNSAAYHSKGKELLAQKLPLWQQACADPSKIPERAVQLMQQVASNGATLPSALSASKSNLVISDPIPGAKPLPVPPELAPFVGRMSAQESTPIMNGVTGPDGEDYSPWADRKAAQPKSLSPPQSQSKLSDSYSNTLPVRKSVTPKNSYATTENKTLPRSSSMAAGLERNGRMRVKAIFSHAAGDNSTLLSFKEGDLITLLVPEARDGWHYGESEKTKMRGWFPFSYTRVLDSDGSDRLHMSLQQGKSSSTGNLLDKDDLAIPPPDYGAASRAFPAQTASGFKQRPYSVAVPAFSQGLDDYGARSMSSGSGTLVSTV [R193S],effect of a mutation on the interaction,"tir_eco27 tir, B7UM99",disrupting interaction
same,effect of a mutation on the interaction,"tir_eco57 tir, Q7DB77 [1]",disrupting interaction
MSLSRSEEMHRLTENVYKTIMEQFNPSLRNFIAMGKNYEKALAGVTYAAKGYFDALVKMGELASESQGSKELGDVLFQMAEVHRQIQNQLEEMLKSFHNELLTQLEQAVELDSRYLSAALKKYQTEQRSKGDALDKCQAELKKLRKKSQGSKNPQKYSDKELQYIDAISNKQGELENYVSDGYKTALTEERRSFCFLVEKQCAVAKNSAAYHSKGKELLAQKLPLWQQACADPSKIPERAVQLMQQVASNGATLPSALSASKSNLVISDPIPGAKPLPVPPELAPFVGRMSAQESTPIMNGVTGPDGEDYSPWADRKAAQPKSLSPPQSQSKLSDSYSNTLPVRKSVTPKNSYATTENKTLPRSSSMAAGLERNGRMRVKAIFSHAAGDNSTLLSFKEGDLITLLVPEARDGWHYGESEKTKMRGWFPFSYTRVLDSDGSDRLHMSLQQGKSSSTGNLLDKDDLAIPPPDYGAASRAFPAQTASGFKQRPYSVAVPAFSQGLDDYGARSMSSGSGTLVSTV [K108A;R193S],effect of a mutation on the interaction,"tir_eco27 tir, B7UM99",disrupting interaction
same,effect of a mutation on the interaction,"tir_eco57 tir, Q7DB77 [2]",disrupting interaction
MSLSRSEEMHRLTENVYKTIMEQFNPSLRNFIAMGKNYEKALAGVTYAAKGYFDALVKMGELASESQGSKELGDVLFQMAEVHRQIQNQLEEMLKSFHNELLTQLEQAVELDSRYLSAALKKYQTEQRSKGDALDKCQAELKKLRKKSQGSKNPQKYSDKELQYIDAISNKQGELENYVSDGYKTALTEERRRFCALVEKQCAVAKNSAAYHSKGKELLAQKLPLWQQACADPSKIPERAVQLMQQVASNGATLPSALSASKSNLVISDPIPGAKPLPVPPELAPFVGRMSAQESTPIMNGVTGPDGEDYSPWADRKAAQPKSLSPPQSQSKLSDSYSNTLPVRKSVTPKNSYATTENKTLPRSSSMAAGLERNGRMRVKAIFSHAAGDNSTLLSFKEGDLITLLVPEARDGWHYGESEKTKMRGWFPFSYTRVLDSDGSDRLHMSLQQGKSSSTGNLLDKDDLAIPPPDYGAASRAFPAQTASGFKQRPYSVAVPAFSQGLDDYGARSMSSGSGTLVSTV [K108A;F196A],effect of a mutation on the interaction,"tir_eco27 tir, B7UM99",disrupting interaction
same,effect of a mutation on the interaction,"tir_eco57 tir, Q7DB77 [2]",disrupting interaction
